Experimental data reported in the supplement of paper PMC9732359.
± gives the uncertainty stated by the source.

Test: protein stability index of a GFP-peptide fusion (yeast GPS) (PSI 1-4); higher = more stable; sorted into four equal gates, so the index is relative within each strain
In short: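 Mid-log yeast cultures in leucine-free medium, carrying a pooled plasmid library, were sorted into four equal gates by their GFP/Cherry fluorescence ratio. Each plasmid expressed Cherry along with GFP fused upstream of a tiled 17-residue yeast protein peptide. Plasmids recovered from each gate were PCR-amplified and Illumina-sequenced, with reads assigned to strains by barcodes. The protein stability index was obtained by summing each gate's read frequency weighted by its gate number.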

Sequence	protein stability index (doa10∆)	protein stability index (pdr5∆)	protein stability index (san1∆)	protein stability index (ubr1∆)
GRLEIFKIHTAKVKKTG [RPT4]	2.13 ± 0.11	2.89 ± 0.12	2.33 ± 0.19	2.51 ± 0.097
GRPETYIWRYLPAPPVC [RPO31]	1.5 ± 0.18	1.57 ± 0.12	1.17 ± 0.16	2.02 ± 0.1
GRPRYDTFGEGIIITDQ [BRR2]	3.02 ± 0.15	2.85 ± 0.14	2.62 ± 0.14	3.11 ± 0.11
GRSHTRNSTRSSGFNED [REC8]		3.55 ± 0.23		
GRSNEIVKTTTKQRLDA [PRP8]	3.06 ± 0.073	2.78 ± 0.11	2.63 ± 0.13	3.2 ± 0.052
GSADIGASVISLTKDKS [SIR4]	3.01 ± 0.086	3.12 ± 0.067	2.92 ± 0.084	3.21 ± 0.052
GSAINHHRIFDSSAHFK [YMR129W/POM152]	2.57 ± 0.049	2.46 ± 0.062	2.64 ± 0.075	2.71 ± 0.039
GSDKQMFTQIYLERIEL [YML103C/NUP188]	2.5 ± 0.095	2.36 ± 0.086	1.62 ± 0.23	1.53 ± 0.048
GSENKRGSLDSEHVFDY [NUT1]	3.37 ± 0.14	3.29 ± 0.11	3.32 ± 0.2	3.57 ± 0.05
GSFKYITARSAFVEFGA [SWP82]	2.62 ± 0.11	3.11 ± 0.074	2.96 ± 0.069	2.56 ± 0.056
GSGAANENPYNNGVSNL [COR1]	3.02 ± 0.17	2.94 ± 0.14	3.15 ± 0.11	2.79 ± 0.17
GSGQPDNDTVVTNDDKS [SRB8]	3.08 ± 0.23	3.29 ± 0.17	2.52 ± 0.15	
GSKISSNDLDKFFQKKI [YGL172W/NUP49]	1.72 ± 0.069	2.02 ± 0.076	1.7 ± 0.074	2.27 ± 0.057
GSKSDGSAATSGFEFSK [RPN1]	2.7 ± 0.14	3.09 ± 0.14	2.72 ± 0.14	3.1 ± 0.12
GSRKVAGILRGYDIFLN [SMX2]	2.5 ± 0.11	1.67 ± 0.08	1.83 ± 0.15	1.98 ± 0.099
GSSKPAFSFGAKPDEKK [YJL041W/NSP1]	3.19 ± 0.17	3.18 ± 0.14		3.29 ± 0.17
GSVSEETELFEPGVLNT [ECM29]	3.28 ± 0.16	3 ± 0.087	3.07 ± 0.096	2.67 ± 0.083
GTAIGAIGAQSIGEPGT [RPO31]	3.12 ± 0.11	3.13 ± 0.092	2.61 ± 0.14	3.15 ± 0.059
GTCFGGSKLEDMSKILV [RET1]	3.04 ± 0.074	3.3 ± 0.096	3.36 ± 0.065	3.45 ± 0.056
GTGKPEAIHDMFTYSQE [RPN2]	2.8 ± 0.16		3.12 ± 0.071	2.72 ± 0.11
GTILSSAGDDGKVRLWK [YGL100W/SEH1]	3.27 ± 0.12	3.51 ± 0.1	3.49 ± 0.053	3.38 ± 0.059
GTLEGHNGWVTSLATSA [ASC1]	2.61 ± 0.063	1.87 ± 0.069	1.74 ± 0.15	1.67 ± 0.066
GTLLREDDNTPAGHAGN [YDL088C/ASM4]	3.03 ± 0.084	2.79 ± 0.086	3.09 ± 0.054	3 ± 0.045
GTNKDMILKLVCQVTKF [ECM29]	1.55 ± 0.058	1.26 ± 0.037	1.28 ± 0.13	1.59 ± 0.077
GTNNISQHGQGNNPSWV [YDL088C/ASM4]	3.01 ± 0.078	3.39 ± 0.059	3.3 ± 0.058	3.12 ± 0.054
GTSTTHGSISPQEESVS [SIR3]	2.14 ± 0.043	2.56 ± 0.045	2.43 ± 0.053	2.48 ± 0.033
GTVSRVNRLLSVIPLKG [RRP4]	1.25 ± 0.058	1.38 ± 0.05	1.2 ± 0.14	1.23 ± 0.048

Sequence	protein stability index (doa10∆)	protein stability index (pdr5∆)	protein stability index (san1∆)	protein stability index (ubr1∆)
GTYIQERNPTQRPQRRY [RPS10A]	3.01 ± 0.051	3.1 ± 0.041	3.07 ± 0.034	3.14 ± 0.032
GVAMNPVDHPHGGGNHQ [RPL2A]	2.9 ± 0.27			3.25 ± 0.14
GVCNHAFHLHCINKWIK [HRT1]	1.77 ± 0.045	2.49 ± 0.04	1.64 ± 0.068	2.16 ± 0.042
GVDLKLKYSKRRSLKKQ [CSN12]	2.89 ± 0.074	2.75 ± 0.069	3.27 ± 0.15	3.05 ± 0.036
GVEQLHYTGISQSACRE [SSN3]	2.69 ± 0.089	2.38 ± 0.085	2.66 ± 0.13	2.56 ± 0.099
GVGKRKVWLDPNETSEI [RPL19A]	3.13 ± 0.23	3.69 ± 0.24		3.04 ± 0.29
GVTKGYKYKMRYVYAHF [RPL9A]	2.73 ± 0.14		3.12 ± 0.12	2.87 ± 0.16
GVVQMVTDNKTPEMNVT [TAF14]	2.78 ± 0.16	2.67 ± 0.22	3.33 ± 0.092	
GVVRYVMESGAKGCEVV [RPS3]	1.29 ± 0.097	1.67 ± 0.1		1.34 ± 0.086
GVWDVDNPLRQIPHFNN [BRR2]	3.26 ± 0.077	3.24 ± 0.083	3.26 ± 0.065	3.13 ± 0.07
GWKPYYKLFIWLVVPTI [YML031W/NDC1]	1.28 ± 0.049	1.2 ± 0.044	1.19 ± 0.09	1.16 ± 0.044
GYDIFLNVVLDDAMEIN [SMX2]	3.13 ± 0.064	3.07 ± 0.075	3.17 ± 0.054	2.99 ± 0.06
GYDKSGAHLLEFQPSGN [PRE5]	2.68 ± 0.25	3.22 ± 0.18	2.79 ± 0.21	
GYLIQVLLTFLQDELHK [YCS4]	2.97 ± 0.1	2.02 ± 0.088	2.01 ± 0.12	3.24 ± 0.096
GYQWGEENKDIMNVLSE [PRP8]	2.8 ± 0.22			3.16 ± 0.24
HAKRKTVTSLDVVYALK [HHF1]	3.54 ± 0.18	3.57 ± 0.14	3.19 ± 0.084	3.12 ± 0.12
HAMGGREGLIDTAVKTA [RPO21]	1.24 ± 0.076	1.35 ± 0.065	1.23 ± 0.15	1.17 ± 0.054
HCIDYLRKNKLGYARFI [SMC4]	1.19 ± 0.036	1.21 ± 0.039	1.14 ± 0.091	1.14 ± 0.04
HDEKLSDELHNQSTIYE [LIN1]	2.91 ± 0.11	2.74 ± 0.12	2.73 ± 0.16	2.77 ± 0.097
HDSSNGLFQVLHNFESV [NUT1]	3.16 ± 0.064	3.15 ± 0.064	2.79 ± 0.07	3.242 ± 0.031
HDVLQKLNTLSEILSFD [YML103C/NUP188]	2.99 ± 0.068	3.2 ± 0.067	3.03 ± 0.051	3.14 ± 0.041
HESYCLPMDTNLFKINS [YMR129W/POM152]	1.54 ± 0.055	1.72 ± 0.039	1.74 ± 0.13	1.37 ± 0.067
HEYIRHLALEIGEVYND [RPN1]	2.29 ± 0.065	2.09 ± 0.067	2.49 ± 0.11	1.54 ± 0.077
HFTEIKLNKVDKNELQQ [SIR3]	2.86 ± 0.056	2.88 ± 0.056	3 ± 0.04	3.07 ± 0.049
HGINLQNKKNLKWVAVV [SSN2]	2.98 ± 0.066	3.11 ± 0.051	3.05 ± 0.057	3.23 ± 0.057
HGQLKLSIQYMIQKVME [RPN5]	2.17 ± 0.1	2.73 ± 0.081	2.04 ± 0.15	2.84 ± 0.085
HHDGKLWNLNAYRTDVI [PRP8]	2.94 ± 0.082	3.28 ± 0.092	3.04 ± 0.074	3.07 ± 0.071
